Laboratory results from paper PMC2169300, “Signal-Regulated Pre-mRNA Occupancy by the General Splicing Factor U2AF”.

Assays:
[1] = biological target: T1, His-Sam68 (mouse, UniProt Q60749 1-443); assay: EMSA; 25 and 50 ng protein; EMSA as described in cited ref [19]; buffer, salt, pH and temperature not given; conditions: protein: recombinant; tags: His (pQE-32); chain copies: 2
[2] = biological target: T1, His-Sam68; assay: EMSA; dose-dependent; EMSA as described in cited ref [19]; buffer, salt, pH and temperature not given; conditions: protein: recombinant; tags: His (pQE-32); chain copies: 2

T1 sequence (Q60749 whole entry): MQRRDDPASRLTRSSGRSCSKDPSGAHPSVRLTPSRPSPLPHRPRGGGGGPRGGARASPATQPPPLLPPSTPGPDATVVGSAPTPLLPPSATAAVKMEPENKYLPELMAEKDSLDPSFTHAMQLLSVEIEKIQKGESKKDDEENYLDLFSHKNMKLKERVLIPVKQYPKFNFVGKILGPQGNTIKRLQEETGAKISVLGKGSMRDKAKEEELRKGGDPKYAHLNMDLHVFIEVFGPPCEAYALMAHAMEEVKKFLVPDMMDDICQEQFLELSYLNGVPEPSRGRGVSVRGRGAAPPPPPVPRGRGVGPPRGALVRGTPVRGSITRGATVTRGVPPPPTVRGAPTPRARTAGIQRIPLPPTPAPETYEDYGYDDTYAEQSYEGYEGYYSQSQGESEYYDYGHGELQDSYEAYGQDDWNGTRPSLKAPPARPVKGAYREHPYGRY

| Binder | binding result [1] | binding result [2] |
| --- | --- | --- |
| AUAGACAGAAUCAGCACCAGUGCUCAUGGAGAAAAUUGGACC (ssRNA) [CD44 v5 exonic Sam68 site RNA] | binds |  |
| GAAGAAGAGGAUUAUUAAAGACUAUUUGAUUAGA (ssRNA) [CD44 intronic Sam68 site RNA (wt)] |  | binds |
